Assay results reported in publication PMC5892705.

Target: human vasopressin V2 receptor (human), P30518

cAMP production, EC50: 109 nM
Binder: UYIQNUPLG (modifications not checked) [[Se-Se]-OT-OH]
